Reference: the supplement of paper PMC11246515
± gives the standard deviation of the averaged measurements.

Experiment: total protein half-life in vivo (active degradation + dilution); higher = more stable protein
[1] = E. coli NCM3722 delta-clpP delta-lon delta-hslV, growth: N-lim chemostat, doubling time 6 h
[2] = E. coli NCM3722 delta-clpP, growth: N-lim chemostat, doubling time 6 h
[3] = E. coli NCM3722 delta-hslV, growth: N-lim chemostat, doubling time 6 h
[4] = E. coli NCM3722 delta-lon, growth: N-lim chemostat, doubling time 6 h
[5] = E. coli NCM3722 delta-smpB, growth: N-lim chemostat, doubling time 6 h
[6] = wild type E. coli NCM3722, growth: C-lim chemostat, doubling time 3 h
[7] = wild type E. coli NCM3722, growth: C-lim chemostat, doubling time 6 h
[8] = wild type E. coli NCM3722, growth: C-lim chemostat, doubling time 12 h
[9] = wild type E. coli NCM3722, growth: N-lim chemostat, doubling time 6 h
[10] = wild type E. coli NCM3722, growth: N-lim chemostat, doubling time 12 h
[11] = wild type E. coli NCM3722, growth: P-lim chemostat, doubling time 12 h
[12] = wild type E. coli NCM3722, growth: P-lim chemostat, doubling time 6 h

Sequence | total protein half-life in vivo [1] | total protein half-life in vivo [2] | total protein half-life in vivo [3] | total protein half-life in vivo [4] | total protein half-life in vivo [5] | total protein half-life in vivo [6] | total protein half-life in vivo [7] | total protein half-life in vivo [8] | total protein half-life in vivo [9] | total protein half-life in vivo [10] | total protein half-life in vivo [11] | total protein half-life in vivo [12]
MQSLHGNCLIAYARHKYILTMVNGEYRYFNGGDLVFADASQIRVDKCVENFVFVSRDTLSLFLPMLKEEALNLHAHKKVSSLLVHHCSRDIPVFQEVAQLSQNKNLRYAEMLRKRALIFALLSVFLEDEHFIPLLLNVLQPNMRTRVCTVINNNIAHEWTLARIASELLMSPSLLKKKLREEETSYSQLLTECRMQRALQLIVIHGFSIKRVAVSCGYHSVSYFIYVFRNYYGMTPTEYQERSAQRLSNRDSAASIVAQGNFYGTDRSAEGIRL | 6.49 ± 1 h | 1.14 h | – | – | – | – | – | – | – | – | – | –
MVKSTPCITIDFMNMSQLTERTFTPSESLSSLSLFLSLARGQCRPGKFWHRRSFRQKFLLRSLIMPRLSVEWMNELSHWPNLNVLLTRQPRLPVRLHRPYLAANLSRKQLLEALRYHYALLRECMSAEEFSLYLNTPGLQLAKLEGKNGEQFTLELTMMISMDKEGDSTILFRNSEGIPLAEITFTLCEYQGKRTMFIGGLQGAKWEIPHQEIQNATKACHGLFPKRLVMEAACLFAQRLQVEQIIAVSNETHIYRSLRYRDKEGKIHADYNAFWESVGGVCDAERHYRLPAQIARKEIAEIASKKRAEYRRRYEMLDAIQPQMATMFRG | 3.06 ± 0.041 h | – | 0.723 h | 1.38 ± 0.35 h | 0.646 ± 0.039 h | 0.953 ± 0.067 h | 0.7307 ± 0.0013 h | 1.31 h | 1.16 ± 0.38 h | 1.2 ± 0.25 h | 2.33 h | –
MKKFALLAGLFVFAPMTWAQDYNIKNGLPSETYITCAEANEMAKTDSAQVAEIVAVMGNASVASRDLKIEQSPELSAKVVEKLNQVCAKDPQMLLITAIDDTMRAIGKK [P0AB46] | 3 ± 0.32 h | 4 h | 6.28 h | – | 4.66 ± 0.55 h | 2.77 h | 4.69 ± 0.2 h | 6.77 ± 0.093 h | 4.93 h | 10.1 ± 2.6 h | 8.95 ± 0.44 h | 4.4 ± 1.1 h
MAKSVPAIFLDRDGTINVDHGYVHEIDNFEFIDGVIDAMRELKKMGFALVVVTNQSGIARGKFTEAQFETLTEWMDWSLADRDVDLDGIYYCPHHPQGSVEEFRQVCDCRKPHPGMLLSARDYLHIDMAASYMVGDKLEDMQAAVAANVGTKVLVRTGKPITPEAENAADWVLNSLADLPQAIKKQQKPAQ | 5.54 ± 0.29 h | 5.269 ± 0.022 h | 4.97 ± 0.51 h | 5.62 ± 0.25 h | 4.95 ± 0.083 h | 2.54 ± 0.091 h | 4.782 ± 0.0071 h | 13.4 ± 3.2 h | 5.05 ± 0.25 h | 8.7 ± 0.32 h | 11.4 ± 1.5 h | 5.49 ± 0.68 h
MATLFIADLHLCVEEPAITAGFLRFLAGEARKADALYILGDLFEAWIGDDDPNPLHRKMAAAIKAVSDSGVPCYFIHGNRDFLLGKRFARESGMTLLPEEKVLELYGRRVLIMHGDTLCTDDAGYQAFRAKVHKPWLQTLFLALPLFVRKRIAARMRANSKEANSSKSLAIMDVNQNAVVSAMEKHQVQWLIHGHTHRPAVHELIANQQPAFRVVLGAWHTEGSMVKVTADDVELIHFPF | 5.85 ± 1.3 h | 5.94 ± 0.2 h | 6.87 ± 0.8 h | – | 5.781 ± 0.025 h | 3.14 ± 0.045 h | – | 13.1 ± 0.46 h | 6.36 ± 0.95 h | 12.4 ± 0.57 h | 12 ± 0.37 h | 6.49 ± 0.51 h
MLDKIDRKLLALLQQDCTLSLQALAEAVNLTTTPCWKRLKRLEDDGILIGKVALLDPEKIGLGLTAFVLIKTQHHSSEWYCRFVTVVTEMPEVLGFWRMAGEYDYLMRVQVADMKRYDEFYKRLVNSVPGLSDVTSSFAMEQIKYTTSLPIE [P0ACJ5] | 5.92 ± 0.82 h | 4.67 ± 0.26 h | 4.43 ± 1.7 h | 5.95 h | 5.08 ± 0.24 h | 3.37 ± 0.6 h | 5.09 ± 0.47 h | 8.43 ± 3.3 h | 4.34 ± 0.2 h | 9.01 ± 4.2 h | 10.3 ± 3.2 h | 4.45 h
MNKSRQKELTRWLKQQSVISQRWLNISRLLGFVSGILIIAQAWFMARILQHMIMENIPREALLLPFTLLVLTFVLRAWVVWLRERVGYHAGQHIRFAIRRQVLDRLQQAGPAWIQGKPAGSWATLVLEQIDDMHDYYARYLPQMALAVSVPLLIVVAIFPSNWAAALILLGTAPLIPLFMALVGMGAADANRRNFLALARLSGHFLDRLRGMETLRIFGRGEAEIESIRSASEDFRQRTMEVLRLAFLSSGILEFFTSLSIALVAVYFGFSYLGELDFGHYDTGVTLAAGFLALILAPEFFQPLRDLGTFYHAKAQAVGAADSLKTFMETPLAHPQRGEAELASTDPVTIEAEELFITSPEGKTLAGPLNFTLPAGQRAVLVGRSGSGKSSLLNALSGFLSYQGSLRINGIELRDLSPESWRKHLSWVGQNPQLPAATLRDNVLLARPDASEQELQAALDNAWVSEFLPLLPQGVDTPVGDQAARLSVGQAQRVAVARALLNPCSLLLLDEPAASLDAHSEQRVMEALNAASLRQTTLMVTHQLEDLADWDVIWVMQDGRIIEQGRYAELSVAGGPFATLLAHRQEEI | – | 6.56 ± 0.17 h | 5.94 ± 0.14 h | 6.1322 ± 0.0016 h | 5.95 ± 0.69 h | 3.54 ± 0.42 h | 5.88 ± 0.21 h | – | 6.42 ± 0.35 h | 12.7 ± 1.1 h | 11.8 ± 0.91 h | 6.33 ± 0.11 h
MLQHYSVSWKKGLAALCLLAVAGLSGCDQQENAAAKVEYDGLSNSQPLRVDANNHTVTMLVQINGRFLTDDTRHGIVFKDGSNGHKSLFMGYATPKAFYEALKEAGGTPGENMTMDNKETTHVTGSKLDISVNWQGAAKAYSFDEVIVDSNGKKLDMRFGGNLTAAEEKKTGCLVCLDSCPVGIVSNATYTYGAVEKRGEVKFKGNASVLPADNTLATVTFKIAE | 5.59 ± 0.95 h | 6.08 ± 0.12 h | 6.34 ± 0.64 h | 6.31 ± 0.53 h | 6.66 ± 0.39 h | 2.87 ± 0.32 h | 6.91 ± 0.16 h | – | 6.55 ± 0.35 h | 12.4 ± 0.69 h | 14.84 ± 0.069 h | 4.96 ± 0.71 h
